Measured values taken from paper PMC9861184.

system: T1, SigW (ECF sigma factor, GST fusion) (Pseudomonas donghuensis HYS), ORF:b11b1795; assay: EMSA; conditions: EMSA: 0.3 uM DNA in 20 uL, 10 mM Tris-HCl pH 7.5, 150 mM NaCl, 2 mM DTT, 2 mM EDTA, 10% glycerol, 30 C 40 min; 6.8% native PAGE in 0.5x TBE on ice, EB stain
T1 sequence: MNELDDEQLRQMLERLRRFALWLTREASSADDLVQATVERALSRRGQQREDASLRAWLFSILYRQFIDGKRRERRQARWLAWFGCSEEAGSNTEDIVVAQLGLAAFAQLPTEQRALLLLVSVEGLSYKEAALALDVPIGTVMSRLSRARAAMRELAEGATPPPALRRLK

| Sequence | binding |
| --- | --- |
| CCCTACCGTATTTGAACGGCTGGCCAGCCCTCTGTGTCCTTGCACGCCCTTGAGTTAGGGCCTGCATGCCCCATTTGCGGGCAGAGAACACTGCCGGTTCAAAGACATTCAGGGAAAAACCTCCAGGATCGGAGCCCCGTGGTCTGGCTGGCAGTCTTTCTCACAAATGCGATCAGGTAAATTCTGGAGTCATTCGTGAAACAAGCTCAACTTCCGCGCAAGATACCCACACAAGCCCGCTCGAGG (double strand) [orf12 promoter] | binds |
| CGAACTCATGGCCTGCCCCCGGGAACGGGCGCAGGGGCACGGTAAAACAGGTACAGGCGCATGGCTTCAGAACTCCGGGTAATTGAGGTACCCGGCAAGTCTATGGAGGCCGATTACTGACGAAAACTGACATATTCGCAGCTTTATGCTGCATGAGACGCAACTATACGATCAGGTATATATAAGCGCTCAAAAGCATC (double strand) [orf2-orf5 promoter] | binds more weakly |
| GCCCGCGTATTTCCTGAGCTCAACCTGAGCAATCACGCAGCGCCGCACTCGGTTATTTGAATGCGAGTAGCCATAGCACGGCAACTTGCCTAGGATAAGAAACAAATTGAAACGTTGTTAAAAGTGACAACTACCCGCTCAACGATGTTTCAACTTTCTTGCAATCTTCAGCCCCACAAATCAATAAAAGGACGTTCACGATGAGCAACAAGGGTTTTGACACCG (double strand) [orf9-orf6 promoter] | binds |
| TCAATGGCGATCAGTACCGAGCTGTACATGGTGACGGGACCCATTCTGAATACAAAGAGCAGGCATTCTTGAAAAAGCGTGCGGCCGGGTAAATGGTGCGCGGTGCAATGACTAGTTGCGCAGAATGCAAGGGCTGGAAAACCTGCAGAAACTGGTAAGATTGCAGCGGATTCACTGAAATACATGAATGGATGCTTACCATGCACTTTCCGGATA (double strand) [orf1 promoter] | binds |
